Reference: the RNAGym collection of RNA variant scans (doi:10.7554/elife.80360)

B1: HDV Ribozyme (parent)
chain: GGCCGGCAUGGUCCCAGCCUCCUCGCUGGCGCCGGCUGGGCAACAUUCCGAGGGGACCGUCCCCUCGGUAAUGGCGAAUGGGACCCA

Variants of: B1
Experiment: self-cleavage, relative activity (ratio to wild type); higher = more cleavage; co-transcriptional

Variant	self-cleavage
GGCCGGAAUGGUCCCAGCCUCCUCGCUGGCGCCGGCUGGGCAACAUUCCGAGGGGACCGUACCCUCGGUAAUGGCGAAUGGGACCCA	0.692
GGCCGGAAUGGUCCCAGCCUCCUCGCUGGCGCCGGCUGGGCAACAUUCCGAGGGGACCGUGCCCUCGGUAAUGGCGAAUGGGACCCA	0.806
GGCCGGAAUGGUCCCAGCCUCCUCGCUGGCGCCGGCUGGGCAACAUUCCGAGGGGACCGUCUCCUCGGUAAUGGCGAAUGGGACCCA	0.721
GGCCGGAAUGGUCCCAGCCUCCUCGCUGGCGCCGGCUGGGCAACAUUCCGAGGGGACCGUCCUCUCGGUAAUGGCGAAUGGGACCCA	0.652
GGCCGGAAUGGUCCCAGCCUCCUCGCUGGCGCCGGCUGGGCAACAUUCCGAGGGGACCGUCCCGUCGGUAAUGGCGAAUGGGACCCA	0.429
GGCCGGAAUGGUCCCAGCCUCCUCGCUGGCGCCGGCUGGGCAACAUUCCGAGGGGACCGUCCCUUCGGUAAUGGCGAAUGGGACCCA	0.491
GGCCGGAAUGGUCCCAGCCUCCUCGCUGGCGCCGGCUGGGCAACAUUCCGAGGGGACCGUCCCCUAGGUAAUGGCGAAUGGGACCCA	0.539
GGCCGGAAUGGUCCCAGCCUCCUCGCUGGCGCCGGCUGGGCAACAUUCCGAGGGGACCGUCCCCUCGGUAAUGGCGAAUGGGAGCCA	0.128
GGCCGGAAUCGUCCCAGCCUCCUCGCUGGCGCCGGCUGGGCAACAUUCCGAGGGGACCGUCCCCUCGGUAAUGGCGAAUGGGACCCA	0.201
GGCCGGAAUUGUCCCAGCCUCCUCGCUGGCGCCGGCUGGGCAACAUUCCGAGGGGACCGUCCCCUCGGUAAUGGCGAAUGGGACCCA	0.0723
GGCCGGAAUGAUCCCAGCCUCCUCGCUGGCGCCGGCUGGGCAACAUUCCGAGGGGACCGUCCCCUCGGUAAUGGCGAAUGGGACCCA	0.0674
GGCCGGAAUGCUCCCAGCCUCCUCGCUGGCGCCGGCUGGGCAACAUUCCGAGGGGACCGUCCCCUCGGUAAUGGCGAAUGGGACCCA	0
GGCCGGAAUGGUCCCAGCCUCCUCGCUCGCGCCGGCUGGGCAACAUUCCGAGGGGACCGUCCCCUCGGUAAUGGCGAAUGGGACCCA	0.0615
GGCCGGAAUGGUCCCAGCCUCCUCGCUGGCGCCGGCUCGGCAACAUUCCGAGGGGACCGUCCCCUCGGUAAUGGCGAAUGGGACCCA	0.106
GGCCGGAAUGGUCCCAGCCUCCUCGCUGGCGCCGGCUGAGCAACAUUCCGAGGGGACCGUCCCCUCGGUAAUGGCGAAUGGGACCCA	0.0739
GGCCGGAAUGGUCCCAGCCUCCUCGCUGGCGCCGGCUGUGCAACAUUCCGAGGGGACCGUCCCCUCGGUAAUGGCGAAUGGGACCCA	0.18
GGCCGGAAUGGUCCCAGCCUCCUCGCUGGCGCCGGCUGGACAACAUUCCGAGGGGACCGUCCCCUCGGUAAUGGCGAAUGGGACCCA	0.646
GGCCGGAAUGGUCCCAGCCUCCUCGCUGGCGCCGGCUGGUCAACAUUCCGAGGGGACCGUCCCCUCGGUAAUGGCGAAUGGGACCCA	0.295
GGCCGGAAUGGUCCCAGCCUCCUCGCUGGCGCCGGCUGGGCAACAUUCCUAGGGGACCGUCCCCUCGGUAAUGGCGAAUGGGACCCA	0.475
GGCCGGAAUGGUCCCAGCCUCCUCGCUGGCGCCGGCUGGGCAACAUUCCGAUGGGACCGUCCCCUCGGUAAUGGCGAAUGGGACCCA	0.462
GGCCGGAAUGGUCCCAGCCUCCUCGCUGGCGCCGGCUGGGCAACAUUCCGAGAGGACCGUCCCCUCGGUAAUGGCGAAUGGGACCCA	0.642
GGCCGGAAUGGUCCCAGCCUCCUCGCUGGCGCCGGCUGGGCAACAUUCCGAGUGGACCGUCCCCUCGGUAAUGGCGAAUGGGACCCA	0.544

Variant	self-cleavage
GGCCGGAAUGGUCCCAGCCUCCUCGCUGGCGCCGGCUGGGCAACAUUCCGAGGCGACCGUCCCCUCGGUAAUGGCGAAUGGGACCCA	0.8
GGCCGGAAUGGUCCCAGCCUCCUCGCUGGCGCCGGCUGGGCAACAUUCCGAGGGGACCAUCCCCUCGGUAAUGGCGAAUGGGACCCA	0.753
GGCCGGAAUGGUCCCAGCCUCCUCGCUGGCGCCGGCUGGGCAACAUUCCGAGGGGACCUUCCCCUCGGUAAUGGCGAAUGGGACCCA	0.646
GGCCGGAAUGGUCCCAGCCUCCUCGCUGGCGCCGGCUGGGCAACAUUCCGAGGGGACCGUCCCCUCGUUAAUGGCGAAUGGGACCCA	0.623
GGCCGGAAUGGUCCCAGCCUCCUCGCUGGCGCCGGCUGGGCAACAUUCCGAGGGGACCGUCCCCUCGGUAAUCGCGAAUGGGACCCA	0.106
GGCCGGAAUGGUCCCAGCCUCCUCGCUGGCGCCGGCUGGGCAACAUUCCGAGGGGACCGUCCCCUCGGUAAUUGCGAAUGGGACCCA	0.128
GGCCGGAAUGGUCCCAGCCUCCUCGCUGGCGCCGGCUGGGCAACAUUCCGAGGGGACCGUCCCCUCGGUAAUGACGAAUGGGACCCA	0.026
GGCCGGAAUGGUCCCAGCCUCCUCGCUGGCGCCGGCUGGGCAACAUUCCGAGGGGACCGUCCCCUCGGUAAUGUCGAAUGGGACCCA	0.201
GGCCGGAAUGGUCCCAGCCUCCUCGCUGGCGCCGGCUGGGCAACAUUCCGAGGGGACCGUCCCCUCGGUAAUGGCAAAUGGGACCCA	0.868
GGCCGGAAUGGUCCCAGCCUCCUCGCUGGCGCCGGCUGGGCAACAUUCCGAGGGGACCGUCCCCUCGGUAAUGGCGAAUAGGACCCA	0.0739
GGCCGGAAUGGUCCCAGCCUCCUCGCUGGCGCCGGCUGGGCAACAUUCCGAGGGGACCGUCCCCUCGGUAAUGGCGAAUUGGACCCA	0.152
GGCCGGAAUGGUCCCAGCCUCCUCGCUGGCGCCGGCUGGGCAACAUUCCGAGGGGACCGUCCCCUCGGUAAUGGCGAAUGCGACCCA	0.0536
GGCCGGAAGGGUCCCAGCCUCCUCGCUGGCGCCGGCUGGGCAACAUUCCGAGGGGACCGUCCCCUCGGUAAUGGCGAAUGGGACCCA	0.396
GGCCGGAAUGGGCCCAGCCUCCUCGCUGGCGCCGGCUGGGCAACAUUCCGAGGGGACCGUCCCCUCGGUAAUGGCGAAUGGGACCCA	0.237
GGCCGGAAUGGUCCCAGCCUCCGCGCUGGCGCCGGCUGGGCAACAUUCCGAGGGGACCGUCCCCUCGGUAAUGGCGAAUGGGACCCA	0.19
GGCCGGAAUGGUCCCAGCCUCCUCGCUGGCGCCGGCAGGGCAACAUUCCGAGGGGACCGUCCCCUCGGUAAUGGCGAAUGGGACCCA	0.229
GGCCGGAAUGGUCCCAGCCUCCUCGCUGGCGCCGGCCGGGCAACAUUCCGAGGGGACCGUCCCCUCGGUAAUGGCGAAUGGGACCCA	0.719
GGCCGGAAUGGUCCCAGCCUCCUCGCUGGCGCCGGCUGGGCAACAAUCCGAGGGGACCGUCCCCUCGGUAAUGGCGAAUGGGACCCA	0.287
GGCCGGAAUGGUCCCAGCCUCCUCGCUGGCGCCGGCUGGGCAACAGUCCGAGGGGACCGUCCCCUCGGUAAUGGCGAAUGGGACCCA	0.0755
GGCCGGAAUGGUCCCAGCCUCCUCGCUGGCGCCGGCUGGGCAACAUUCCGAGGGGACCGUCCCCUCGGAAAUGGCGAAUGGGACCCA	0.449
GGCCGGGUUGGUCCCAGCCUCCUCGCUGGCGCCGGCUGGGCAACAUUCCGAGGGGACCGUCCCCUCGGUAAUGGCGAAUGGGACCCA	0.104
GGCCGGGAUGGUCCCAGCCUCCUCGCUGGCGCCGGCUGGGCGACAUUCCGAGGGGACCGUCCCCUCGGUAAUGGCGAAUGGGACCCA	0.111

Variant	self-cleavage
GGCCGGGAUGGUCCCAGCCUCCUCGCUGGCGCCGGCUGGGCUACAUUCCGAGGGGACCGUCCCCUCGGUAAUGGCGAAUGGGACCCA	0.0665
GGCCGGGAUGGUCCCAGCCUCCUCGCUGGCGCCGGCUGGGCAACUUUCCGAGGGGACCGUCCCCUCGGUAAUGGCGAAUGGGACCCA	0.383
GGCCGGGAUGGUCCCAGCCUCCUCGCUGGCGCCGGCUGGGCAACAUUCCGGGGGGACCGUCCCCUCGGUAAUGGCGAAUGGGACCCA	0.237
GGCCGGGAUGGUCCCAGCCUCCUCGCUGGCGCCGGCUGGGCAACAUUCCGAGGGGACCGUCCCCUCGGUCAUGGCGAAUGGGACCCA	0.237
GGCCGGGAUGGUCCCAGCCUCCUCGCUGGCGCCGGCUGGGCAACAUUCCGAGGGGACCGUCCCCUCGGUGAUGGCGAAUGGGACCCA	0.256
GGCCGGGAUGGUCCCAGCCUCCUCGCUGGCGCCGGCUGGGCAACAUUCCGAGGGGACCGUCCCCUCGGUAGUGGCGAAUGGGACCCA	0.151
GGCCGGGAUGGUCCCAGCCUCCUCGCUGGCGCCGGCUGGGCAACAUUCCGAGGGGACCGUCCCCUCGGUAAUGGCGGAUGGGACCCA	0.0755
GGCCGGGAUGGUCCCAGCCUCCUCGCUGGCGCCGGCUGGGCAACAUUCCGAGGGGACCGUCCCCUCGGUAAUGGCGUAUGGGACCCA	0.0875
GGCCGGGAUGGUCCCAGCCUCCUCGCUGGCGCCGGCUGGGCAACAUUCCGAGGGGACCGUCCCCUCGGUAAUGGCGAAUGGGACCCU	0.284
GGCCGGGAUGGUGCCAGCCUCCUCGCUGGCGCCGGCUGGGCAACAUUCCGAGGGGACCGUCCCCUCGGUAAUGGCGAAUGGGACCCA	0.0554
GGCCGGGAUGGUUCCAGCCUCCUCGCUGGCGCCGGCUGGGCAACAUUCCGAGGGGACCGUCCCCUCGGUAAUGGCGAAUGGGACCCA	0.158
GGCCGGGAUGGUCCCAGUCUCCUCGCUGGCGCCGGCUGGGCAACAUUCCGAGGGGACCGUCCCCUCGGUAAUGGCGAAUGGGACCCA	0.0639
GGCCGGGAUGGUCCCAGCGUCCUCGCUGGCGCCGGCUGGGCAACAUUCCGAGGGGACCGUCCCCUCGGUAAUGGCGAAUGGGACCCA	0.0791
GGCCGGGAUGGUCCCAGCCUCGUCGCUGGCGCCGGCUGGGCAACAUUCCGAGGGGACCGUCCCCUCGGUAAUGGCGAAUGGGACCCA	0.0791
GGCCGGGAUGGUCCCAGCCUCUUCGCUGGCGCCGGCUGGGCAACAUUCCGAGGGGACCGUCCCCUCGGUAAUGGCGAAUGGGACCCA	0.0898
GGCCGGGAUGGUCCCAGCCUCCUCGCUGGCGCUGGCUGGGCAACAUUCCGAGGGGACCGUCCCCUCGGUAAUGGCGAAUGGGACCCA	0
GGCCGGGAUGGUCCCAGCCUCCUCGCUGGCGCCGGAUGGGCAACAUUCCGAGGGGACCGUCCCCUCGGUAAUGGCGAAUGGGACCCA	0.111
GGCCGGGAUGGUCCCAGCCUCCUCGCUGGCGCCGGGUGGGCAACAUUCCGAGGGGACCGUCCCCUCGGUAAUGGCGAAUGGGACCCA	0.0723
GGCCGGGAUGGUCCCAGCCUCCUCGCUGGCGCCGGUUGGGCAACAUUCCGAGGGGACCGUCCCCUCGGUAAUGGCGAAUGGGACCCA	0.0504
GGCCGGGAUGGUCCCAGCCUCCUCGCUGGCGCCGGCUGGGCAAUAUUCCGAGGGGACCGUCCCCUCGGUAAUGGCGAAUGGGACCCA	0.0462
